The test deals with Affinity peptide KRTGQYKL immobilised in PEG hydrogel. In words: absorption of bFGF into peptide-functionalized hydrogels.

“Recombinant human bFGF (from UniProt P09038 143-288) (ligand)” came in with a bFGF absorbed in gel at 4.4 µM monovalent peptide of 27.3 ng/mg-gel.
